T1: APBA1_1, Q02410
T1 sequence (Q02410 651-752, limits assumed, looked up): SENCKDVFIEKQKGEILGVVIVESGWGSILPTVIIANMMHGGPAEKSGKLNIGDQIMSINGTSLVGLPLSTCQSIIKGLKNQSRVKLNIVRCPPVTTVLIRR

T2: ARHGEF11, O15085
T2 sequence (O15085 42-136, limits assumed, looked up): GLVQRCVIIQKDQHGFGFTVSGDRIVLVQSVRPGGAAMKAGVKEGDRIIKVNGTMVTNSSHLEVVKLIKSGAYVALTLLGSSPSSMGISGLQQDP

T3: DLG3_2, Q92796
T3 sequence (Q92796 221-321, limits assumed, looked up): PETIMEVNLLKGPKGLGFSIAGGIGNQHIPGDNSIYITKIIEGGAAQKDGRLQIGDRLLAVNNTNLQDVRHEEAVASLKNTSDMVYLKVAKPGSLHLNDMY

T4: FRMPD1, Q5SYB0
T4 sequence (Q5SYB0 52-145, limits assumed, looked up): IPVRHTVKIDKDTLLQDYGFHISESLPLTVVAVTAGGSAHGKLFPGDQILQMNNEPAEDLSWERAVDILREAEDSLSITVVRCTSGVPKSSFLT

T5: HTRA3, P83110
T5 sequence (P83110 354-453, limits assumed, looked up): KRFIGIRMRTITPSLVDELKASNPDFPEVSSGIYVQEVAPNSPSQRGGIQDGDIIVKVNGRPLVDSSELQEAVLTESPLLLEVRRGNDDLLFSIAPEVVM

T6: LIN7B, Q9HAP6
T6 sequence (Q9HAP6 88-185, limits assumed, looked up): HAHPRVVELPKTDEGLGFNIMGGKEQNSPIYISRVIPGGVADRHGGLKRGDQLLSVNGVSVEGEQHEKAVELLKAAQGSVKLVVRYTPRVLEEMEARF

T7: NHERF3_3, Q5T2W1
T7 sequence (Q5T2W1 238-333, limits assumed, looked up): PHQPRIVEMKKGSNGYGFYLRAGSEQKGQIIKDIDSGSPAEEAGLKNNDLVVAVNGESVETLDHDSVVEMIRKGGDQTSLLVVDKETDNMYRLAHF

T8: RHPN1, Q8TCX5
T8 sequence (Q8TCX5 508-602, limits assumed, looked up): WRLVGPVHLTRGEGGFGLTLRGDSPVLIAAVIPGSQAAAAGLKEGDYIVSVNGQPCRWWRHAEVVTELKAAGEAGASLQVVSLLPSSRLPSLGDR

T9: SNTA1, Q13424
T9 sequence (Q13424 82-180, limits assumed, looked up): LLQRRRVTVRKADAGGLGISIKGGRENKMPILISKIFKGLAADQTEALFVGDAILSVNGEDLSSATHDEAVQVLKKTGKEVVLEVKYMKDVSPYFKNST


Biological target: T1, APBA1_1, Q02410
Assay: holdup assay
Set-up: key: below the threshold = too weak to quantify, mostly under pKd 3.1 to 4
Settings: plain residues with an end cap or a label only (N-terminal biotin on a linker: ado-ado)

Row | Binder | pKd
1 | TACCHSETVV [TGFA, P01135] | below the threshold
2 | TSSMRGMDAV [RSRC2, Q7L4I2] | below the threshold

Biological target: T2, ARHGEF11, O15085
Assay: holdup assay
Set-up: key: below the threshold = too weak to quantify, mostly under pKd 3.1 to 4
Settings: plain residues with an end cap or a label only (N-terminal biotin on a linker: ado-ado)

Row | Binder | pKd
3 | TACCHSETVV [TGFA, P01135] | 4.44
4 | TSSMRGMDAV [RSRC2, Q7L4I2] | below the threshold

Biological target: T3, DLG3_2, Q92796
Assay: holdup assay
Set-up: key: below the threshold = too weak to quantify, mostly under pKd 3.1 to 4
Settings: plain residues with an end cap or a label only (N-terminal biotin on a linker: ado-ado)

Row | Binder | pKd
5 | TACCHSETVV [TGFA, P01135] | 4.74
6 | TSSMRGMDAV [RSRC2, Q7L4I2] | below the threshold

Biological target: DLG4_2, P78352
Assay: holdup assay
Set-up: key: below the threshold = too weak to quantify, mostly under pKd 3.1 to 4
Settings: plain residues with an end cap or a label only (N-terminal biotin on a linker: ado-ado)

Chain of DLG4_2, P78352 (P78352 155-259): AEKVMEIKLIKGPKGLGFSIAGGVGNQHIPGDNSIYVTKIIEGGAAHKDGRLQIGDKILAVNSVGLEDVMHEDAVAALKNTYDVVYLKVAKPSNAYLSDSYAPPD

Row | Binder | pKd
7 | TACCHSETVV [TGFA, P01135] | 4.82
8 | TSSMRGMDAV [RSRC2, Q7L4I2] | below the threshold

Biological target: T4, FRMPD1, Q5SYB0
Assay: holdup assay
Set-up: key: below the threshold = too weak to quantify, mostly under pKd 3.1 to 4
Settings: plain residues with an end cap or a label only (N-terminal biotin on a linker: ado-ado)

Row | Binder | pKd
9 | TACCHSETVV [TGFA, P01135] | below the threshold
10 | TSSMRGMDAV [RSRC2, Q7L4I2] | below the threshold

Biological target: FRMPD2_1, Q68DX3
Assay: holdup assay
Set-up: key: below the threshold = too weak to quantify, mostly under pKd 3.1 to 4
Settings: plain residues with an end cap or a label only (N-terminal biotin on a linker: ado-ado)

Chain of FRMPD2_1, Q68DX3 (Q68DX3 770-861): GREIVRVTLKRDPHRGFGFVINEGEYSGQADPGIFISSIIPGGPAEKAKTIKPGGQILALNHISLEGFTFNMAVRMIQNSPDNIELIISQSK

Row | Binder | pKd
11 | TACCHSETVV [TGFA, P01135] | below the threshold
12 | TSSMRGMDAV [RSRC2, Q7L4I2] | below the threshold

Biological target: FRMPD2_3, Q68DX3
Assay: holdup assay
Set-up: key: below the threshold = too weak to quantify, mostly under pKd 3.1 to 4
Settings: plain residues with an end cap or a label only (N-terminal biotin on a linker: ado-ado)

Chain of FRMPD2_3, Q68DX3 (Q68DX3 1073-1166): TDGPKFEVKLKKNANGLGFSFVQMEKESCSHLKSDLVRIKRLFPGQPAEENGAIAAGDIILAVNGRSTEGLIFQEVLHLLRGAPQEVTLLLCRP

Row | Binder | pKd
13 | TACCHSETVV [TGFA, P01135] | 3.56
14 | TSSMRGMDAV [RSRC2, Q7L4I2] | below the threshold

Biological target: GIPC2, Q8TF65
Assay: holdup assay
Set-up: key: below the threshold = too weak to quantify, mostly under pKd 3.1 to 4
Settings: plain residues with an end cap or a label only (N-terminal biotin on a linker: ado-ado)

Chain of GIPC2, Q8TF65 (Q8TF65 112-203): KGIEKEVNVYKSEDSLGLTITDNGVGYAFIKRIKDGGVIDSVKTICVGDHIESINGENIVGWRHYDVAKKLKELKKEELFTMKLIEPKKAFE

Row | Binder | pKd
15 | TACCHSETVV [TGFA, P01135] | below the threshold
16 | TSSMRGMDAV [RSRC2, Q7L4I2] | below the threshold

Biological target: GOPC, Q9HD26
Assay: holdup assay
Set-up: key: below the threshold = too weak to quantify, mostly under pKd 3.1 to 4
Settings: plain residues with an end cap or a label only (N-terminal biotin on a linker: ado-ado)

Row | Binder | pKd
17 | TACCHSETVV [TGFA, P01135] | 3.82
18 | TSSMRGMDAV [RSRC2, Q7L4I2] | below the threshold

Biological target: GORASP1, Q9BQQ3
Assay: holdup assay
Set-up: key: below the threshold = too weak to quantify, mostly under pKd 3.1 to 4
Settings: plain residues with an end cap or a label only (N-terminal biotin on a linker: ado-ado)

Chain of GORASP1, Q9BQQ3 (Q9BQQ3 1-208): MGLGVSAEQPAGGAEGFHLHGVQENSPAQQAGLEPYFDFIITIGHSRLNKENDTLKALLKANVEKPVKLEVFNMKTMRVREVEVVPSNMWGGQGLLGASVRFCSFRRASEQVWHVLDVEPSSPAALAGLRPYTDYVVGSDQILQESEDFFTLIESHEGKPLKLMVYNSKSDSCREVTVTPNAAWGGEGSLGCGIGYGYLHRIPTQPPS

Row | Binder | pKd
19 | TACCHSETVV [TGFA, P01135] | 3.67
20 | TSSMRGMDAV [RSRC2, Q7L4I2] | below the threshold

Biological target: T5, HTRA3, P83110
Assay: holdup assay
Set-up: key: below the threshold = too weak to quantify, mostly under pKd 3.1 to 4
Settings: plain residues with an end cap or a label only (N-terminal biotin on a linker: ado-ado)

Row | Binder | pKd
21 | TACCHSETVV [TGFA, P01135] | below the threshold
22 | TSSMRGMDAV [RSRC2, Q7L4I2] | below the threshold

Biological target: Inadl_1, Q8NI35
Assay: holdup assay
Set-up: key: below the threshold = too weak to quantify, mostly under pKd 3.1 to 4
Settings: plain residues with an end cap or a label only (N-terminal biotin on a linker: ado-ado)

Chain of Inadl_1, Q8NI35 (Q8NI35 113-229): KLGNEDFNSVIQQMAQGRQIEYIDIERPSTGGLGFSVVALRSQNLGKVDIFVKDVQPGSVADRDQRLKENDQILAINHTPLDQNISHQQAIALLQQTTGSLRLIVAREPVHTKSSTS

Row | Binder | pKd
23 | TACCHSETVV [TGFA, P01135] | below the threshold
24 | TSSMRGMDAV [RSRC2, Q7L4I2] | below the threshold

Biological target: Inadl_10, Q8NI35
Assay: holdup assay
Set-up: key: below the threshold = too weak to quantify, mostly under pKd 3.1 to 4
Settings: plain residues with an end cap or a label only (N-terminal biotin on a linker: ado-ado)

Chain of Inadl_10, Q8NI35 (Q8NI35 1673-1763): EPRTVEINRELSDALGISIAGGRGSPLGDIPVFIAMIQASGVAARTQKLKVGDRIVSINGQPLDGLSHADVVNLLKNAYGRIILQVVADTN

Row | Binder | pKd
25 | TACCHSETVV [TGFA, P01135] | below the threshold
26 | TSSMRGMDAV [RSRC2, Q7L4I2] | below the threshold

Biological target: Inadl_4, Q8NI35
Assay: holdup assay
Set-up: key: below the threshold = too weak to quantify, mostly under pKd 3.1 to 4
Settings: plain residues with an end cap or a label only (N-terminal biotin on a linker: ado-ado)

Chain of Inadl_4, Q8NI35 (Q8NI35 547-651): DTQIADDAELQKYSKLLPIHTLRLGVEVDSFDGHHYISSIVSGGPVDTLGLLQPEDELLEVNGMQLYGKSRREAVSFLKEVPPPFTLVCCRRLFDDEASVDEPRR

Row | Binder | pKd
27 | TACCHSETVV [TGFA, P01135] | below the threshold
28 | TSSMRGMDAV [RSRC2, Q7L4I2] | below the threshold

Biological target: Inadl_6, Q8NI35
Assay: holdup assay
Set-up: key: below the threshold = too weak to quantify, mostly under pKd 3.1 to 4
Settings: plain residues with an end cap or a label only (N-terminal biotin on a linker: ado-ado)

Chain of Inadl_6, Q8NI35 (Q8NI35 1058-1167): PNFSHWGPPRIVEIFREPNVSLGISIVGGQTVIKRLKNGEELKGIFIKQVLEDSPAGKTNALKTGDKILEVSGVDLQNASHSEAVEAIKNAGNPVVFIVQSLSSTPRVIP

Row | Binder | pKd
29 | TACCHSETVV [TGFA, P01135] | 3.55
30 | TSSMRGMDAV [RSRC2, Q7L4I2] | below the threshold

Biological target: Inadl_8, Q8NI35
Assay: holdup assay
Set-up: key: below the threshold = too weak to quantify, mostly under pKd 3.1 to 4
Settings: plain residues with an end cap or a label only (N-terminal biotin on a linker: ado-ado)

Chain of Inadl_8, Q8NI35 (Q8NI35 1425-1530): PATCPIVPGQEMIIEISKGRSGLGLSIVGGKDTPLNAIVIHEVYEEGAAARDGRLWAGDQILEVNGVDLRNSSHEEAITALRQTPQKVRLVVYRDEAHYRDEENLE

Row | Binder | pKd
31 | TACCHSETVV [TGFA, P01135] | 3.72
32 | TSSMRGMDAV [RSRC2, Q7L4I2] | below the threshold

Biological target: T6, LIN7B, Q9HAP6
Assay: holdup assay
Set-up: key: below the threshold = too weak to quantify, mostly under pKd 3.1 to 4
Settings: plain residues with an end cap or a label only (N-terminal biotin on a linker: ado-ado)

Row | Binder | pKd
33 | TACCHSETVV [TGFA, P01135] | below the threshold
34 | TSSMRGMDAV [RSRC2, Q7L4I2] | below the threshold

Biological target: LNX1_2, Q8TBB1
Assay: holdup assay
Set-up: key: below the threshold = too weak to quantify, mostly under pKd 3.1 to 4
Settings: plain residues with an end cap or a label only (N-terminal biotin on a linker: ado-ado)

Chain of LNX1_2, Q8TBB1 (Q8TBB1 371-470): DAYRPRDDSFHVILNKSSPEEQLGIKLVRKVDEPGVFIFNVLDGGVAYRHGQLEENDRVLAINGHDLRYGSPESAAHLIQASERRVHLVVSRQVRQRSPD

Row | Binder | pKd
35 | TACCHSETVV [TGFA, P01135] | 3.9
36 | TSSMRGMDAV [RSRC2, Q7L4I2] | below the threshold

Biological target: LNX1_3, Q8TBB1
Assay: holdup assay
Set-up: key: below the threshold = too weak to quantify, mostly under pKd 3.1 to 4
Settings: plain residues with an end cap or a label only (N-terminal biotin on a linker: ado-ado)

Chain of LNX1_3, Q8TBB1 (Q8TBB1 500-596): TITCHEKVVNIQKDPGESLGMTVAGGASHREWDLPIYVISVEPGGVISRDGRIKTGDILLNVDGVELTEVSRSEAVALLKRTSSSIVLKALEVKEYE

Row | Binder | pKd
37 | TACCHSETVV [TGFA, P01135] | below the threshold
38 | TSSMRGMDAV [RSRC2, Q7L4I2] | below the threshold

Biological target: MAGI1_2, Q96QZ7
Assay: holdup assay
Set-up: key: below the threshold = too weak to quantify, mostly under pKd 3.1 to 4
Settings: plain residues with an end cap or a label only (N-terminal biotin on a linker: ado-ado)

Chain of MAGI1_2, Q96QZ7 (Q96QZ7 456-580): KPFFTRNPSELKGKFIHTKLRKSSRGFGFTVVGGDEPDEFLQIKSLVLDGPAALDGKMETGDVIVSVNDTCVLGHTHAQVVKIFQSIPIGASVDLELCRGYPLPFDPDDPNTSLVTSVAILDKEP

Row | Binder | pKd
39 | TACCHSETVV [TGFA, P01135] | 4.24
40 | TSSMRGMDAV [RSRC2, Q7L4I2] | below the threshold

Biological target: MAGI2_3, Q86UL8
Assay: holdup assay
Set-up: key: below the threshold = too weak to quantify, mostly under pKd 3.1 to 4
Settings: plain residues with an end cap or a label only (N-terminal biotin on a linker: ado-ado)

Chain of MAGI2_3, Q86UL8 (Q86UL8 600-682): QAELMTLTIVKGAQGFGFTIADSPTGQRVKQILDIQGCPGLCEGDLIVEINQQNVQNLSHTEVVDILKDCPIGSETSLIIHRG

Row | Binder | pKd
41 | TACCHSETVV [TGFA, P01135] | below the threshold
42 | TSSMRGMDAV [RSRC2, Q7L4I2] | below the threshold

Biological target: MAGI3_2, Q5TCQ9
Assay: holdup assay
Set-up: key: below the threshold = too weak to quantify, mostly under pKd 3.1 to 4
Settings: plain residues with an end cap or a label only (N-terminal biotin on a linker: ado-ado)

Chain of MAGI3_2, Q5TCQ9 (Q5TCQ9 398-503): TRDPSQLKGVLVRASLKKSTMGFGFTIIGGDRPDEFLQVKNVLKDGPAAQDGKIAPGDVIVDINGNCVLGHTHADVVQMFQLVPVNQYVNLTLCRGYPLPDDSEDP

Row | Binder | pKd
43 | TACCHSETVV [TGFA, P01135] | 5.27
44 | TSSMRGMDAV [RSRC2, Q7L4I2] | below the threshold

Biological target: MAST2, Q6P0Q8
Assay: holdup assay
Set-up: key: below the threshold = too weak to quantify, mostly under pKd 3.1 to 4
Settings: plain residues with an end cap or a label only (N-terminal biotin on a linker: ado-ado)

Chain of MAST2, Q6P0Q8 (Q6P0Q8 1099-1202): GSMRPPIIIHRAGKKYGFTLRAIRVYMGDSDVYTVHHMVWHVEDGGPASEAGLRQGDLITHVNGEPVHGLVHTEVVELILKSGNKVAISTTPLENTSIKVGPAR

Row | Binder | pKd
45 | TACCHSETVV [TGFA, P01135] | 5.1
46 | TSSMRGMDAV [RSRC2, Q7L4I2] | below the threshold

Biological target: T7, NHERF3_3, Q5T2W1
Assay: holdup assay
Set-up: key: below the threshold = too weak to quantify, mostly under pKd 3.1 to 4
Settings: plain residues with an end cap or a label only (N-terminal biotin on a linker: ado-ado)

Row | Binder | pKd
47 | TACCHSETVV [TGFA, P01135] | below the threshold
48 | TSSMRGMDAV [RSRC2, Q7L4I2] | below the threshold

Biological target: NHERF4_4, Q86UT5
Assay: holdup assay
Set-up: key: below the threshold = too weak to quantify, mostly under pKd 3.1 to 4
Settings: plain residues with an end cap or a label only (N-terminal biotin on a linker: ado-ado)

Chain of NHERF4_4, Q86UT5 (Q86UT5 464-550): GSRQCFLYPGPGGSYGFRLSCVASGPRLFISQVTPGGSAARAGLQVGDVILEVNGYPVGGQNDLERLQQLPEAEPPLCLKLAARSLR

Row | Binder | pKd
49 | TACCHSETVV [TGFA, P01135] | below the threshold
50 | TSSMRGMDAV [RSRC2, Q7L4I2] | 3.82

Biological target: PARD3_3, Q8TEW0
Assay: holdup assay
Set-up: key: below the threshold = too weak to quantify, mostly under pKd 3.1 to 4
Settings: plain residues with an end cap or a label only (N-terminal biotin on a linker: ado-ado)

Chain of PARD3_3, Q8TEW0 (Q8TEW0 582-685): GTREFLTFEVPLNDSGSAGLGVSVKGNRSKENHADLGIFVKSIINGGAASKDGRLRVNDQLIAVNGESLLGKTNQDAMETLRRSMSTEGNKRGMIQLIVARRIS

Row | Binder | pKd
51 | TACCHSETVV [TGFA, P01135] | 3.85
52 | TSSMRGMDAV [RSRC2, Q7L4I2] | below the threshold

Biological target: T8, RHPN1, Q8TCX5
Assay: holdup assay
Set-up: key: below the threshold = too weak to quantify, mostly under pKd 3.1 to 4
Settings: plain residues with an end cap or a label only (N-terminal biotin on a linker: ado-ado)

Row | Binder | pKd
53 | TACCHSETVV [TGFA, P01135] | 4.24
54 | TSSMRGMDAV [RSRC2, Q7L4I2] | below the threshold

Biological target: T9, SNTA1, Q13424
Assay: holdup assay
Set-up: key: below the threshold = too weak to quantify, mostly under pKd 3.1 to 4
Settings: plain residues with an end cap or a label only (N-terminal biotin on a linker: ado-ado)

Row | Binder | pKd
55 | TACCHSETVV [TGFA, P01135] | 5.04
56 | TSSMRGMDAV [RSRC2, Q7L4I2] | below the threshold

Reference: publication PMC9482650, “Quantitative fragmentomics allow affinity mapping of interactomes” (Nature Communications, 2022)
